Test results as given in US20250277048A1 (Regeneron, published 2025).

T1: monkey CD40 extracellular domain expressed with a C-terminal myc-myc-hexahistidine tag (monkey)
T1 construct: also called mfCD40-MMH; REGN3097
T1 chain: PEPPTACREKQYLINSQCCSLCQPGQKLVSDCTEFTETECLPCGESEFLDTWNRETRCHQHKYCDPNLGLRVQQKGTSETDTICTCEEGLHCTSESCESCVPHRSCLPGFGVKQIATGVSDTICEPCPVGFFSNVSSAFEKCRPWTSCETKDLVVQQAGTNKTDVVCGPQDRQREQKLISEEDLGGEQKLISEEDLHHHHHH

T2: mouse CD40 extracellular domain expressed with a C-terminal myc-myc-hexahistidine tag (mouse)
T2 construct: also called mCD40-MMH; REGN3098
T2 chain: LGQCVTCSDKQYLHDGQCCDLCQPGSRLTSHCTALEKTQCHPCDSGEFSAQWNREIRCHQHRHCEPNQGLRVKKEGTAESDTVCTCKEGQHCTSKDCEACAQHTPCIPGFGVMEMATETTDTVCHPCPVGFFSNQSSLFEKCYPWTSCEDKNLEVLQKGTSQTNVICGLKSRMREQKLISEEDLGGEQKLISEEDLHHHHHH

B1: 30027P2 (antibody, human IgG4 S228P, kappa, V domains shown)
VH: EVQLVESGGGLVQPGGSLRLSCAASGFTFSSYAMNWVRQAPGKGLEWVSIISGTIGKTYYADSVKGRFTISRDNSKNTLYLQMNSLRGEDTAVYYCAKDTERDITGSPFDYWGQGTLVTVSS
VL: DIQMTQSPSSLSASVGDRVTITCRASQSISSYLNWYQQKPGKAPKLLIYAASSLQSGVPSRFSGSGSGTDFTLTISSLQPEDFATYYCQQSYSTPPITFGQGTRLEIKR
notes: parental bivalent anti-CD40 mAb; common light chain; also called H4sH30027P2
B2: REGN16431 (bispecific antibody, human IgG4 S228P, kappa)
heavy 1: QLQLQESGPGLVRPSETLSLTCSVSGASMNTNNYYWGWIRQPPGKGLEWIGSGYYNGNTYYNPSLKSRVTISVDTSKNQFSLKLNSVTAADTAVYYCARQTPPRIIGSPNIWGQGTMVTVSSASTKGPSVFPLAPCSRSTSESTAALGCLVKDYFPEPVTVSWNSGALTSGVHTFPAVLQSSGLYSLSSVVTVPSSSLGTKTYTCNVDHKPSNTKVDKRVESKYGPPCPPCPAPPVAGPSVFLFPPKPKDTLMISRTPEVTCVVVDVSQEDPEVQFNWYVDGVEVHNAKTKPREEQFNSTYRVVSVLTVLHQDWLNGKEYKCKVSNKGLPSSIEKTISKAKGQPREPQVYTLPPSQEEMTKNQVSLTCLVKGFYPSDIAVEWESNGQPENNYKTTPPVLDSDGSFFLYSRLTVDKSRWQEGNVFSCSVMHEALHNHYTQKSLSLSLGK
heavy 2: EVQLVESGGGLVQPGGSLRLSCAASGFTFGSYGMAWVRQAPGKGLEWVSAISGSGDYTNYADSVKRRFTISRDNSKNTLYLQMSSLRAEDTAVYYCAKEKTGTTGYLYSGMDVWGQGTTVTVSSASTKGPSVFPLAPCSRSTSESTAALGCLVKDYFPEPVTVSWNSGALTSGVHTFPAVLQSSGLYSLSSVVTVPSSSLGTKTYTCNVDHKPSNTKVDKRVESKYGPPCPPCPAPPVAGPSVFLFPPKPKDTLMISRTPEVTCVVVDVSQEDPEVQFNWYVDGVEVHNAKTKPREEQFNSTYRVVSVLTVLHQDWLNGKEYKCKVSNKGLPSSIEKTISKAKGQPREPQVYTLPPSQEEMTKNQVSLTCLVKGFYPSDIAVEWESNGQPENNYKTTPPVLDSDGSFFLYSRLTVDKSRWQEGNVFSCSVMHEALHNRFTQKSLSLSPGK
light: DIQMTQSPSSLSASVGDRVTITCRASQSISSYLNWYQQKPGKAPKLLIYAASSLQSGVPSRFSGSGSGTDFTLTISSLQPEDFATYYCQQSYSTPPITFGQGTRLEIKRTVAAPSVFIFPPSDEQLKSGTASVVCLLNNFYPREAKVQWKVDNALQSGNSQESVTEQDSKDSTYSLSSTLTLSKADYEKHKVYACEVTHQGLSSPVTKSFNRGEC
notes: D1 arm from 21519P2, D2 arm from 21520P2, common light chain; also called CD40xCD40 (21519 x 21520)
B3: REGN16432 (bispecific antibody, human IgG4 S228P, kappa)
heavy 1: EVQLVESGGGLVQPGGSLRLSCAASGFTFSSYAMNWVRQAPGKGLEWVSIISGTIGKTYYADSVKGRFTISRDNSKNTLYLQMNSLRGEDTAVYYCAKDTERDITGSPFDYWGQGTLVTVSSASTKGPSVFPLAPCSRSTSESTAALGCLVKDYFPEPVTVSWNSGALTSGVHTFPAVLQSSGLYSLSSVVTVPSSSLGTKTYTCNVDHKPSNTKVDKRVESKYGPPCPPCPAPPVAGPSVFLFPPKPKDTLMISRTPEVTCVVVDVSQEDPEVQFNWYVDGVEVHNAKTKPREEQFNSTYRVVSVLTVLHQDWLNGKEYKCKVSNKGLPSSIEKTISKAKGQPREPQVYTLPPSQEEMTKNQVSLTCLVKGFYPSDIAVEWESNGQPENNYKTTPPVLDSDGSFFLYSRLTVDKSRWQEGNVFSCSVMHEALHNHYTQKSLSLSLGK
heavy 2: B2 heavy 2
light: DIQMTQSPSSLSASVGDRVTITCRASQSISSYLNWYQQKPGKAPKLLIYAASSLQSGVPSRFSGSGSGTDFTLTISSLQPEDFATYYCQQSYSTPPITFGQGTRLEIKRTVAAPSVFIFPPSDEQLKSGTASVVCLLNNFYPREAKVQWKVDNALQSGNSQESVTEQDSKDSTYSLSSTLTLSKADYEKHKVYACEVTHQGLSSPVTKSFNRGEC
notes: D1 arm from 30027P2, D2 arm from 21520P2, common light chain; also called CD40xCD40 (30027 x 21520)
B4: 21519P2 (antibody, human IgG4 S228P, kappa, V domains shown)
VH: QLQLQESGPGLVRPSETLSLTCSVSGASMNTNNYYWGWIRQPPGKGLEWIGSGYYNGNTYYNPSLKSRVTISVDTSKNQFSLKLNSVTAADTAVYYCARQTPPRIIGSPNIWGQGTMVTVSS
VL: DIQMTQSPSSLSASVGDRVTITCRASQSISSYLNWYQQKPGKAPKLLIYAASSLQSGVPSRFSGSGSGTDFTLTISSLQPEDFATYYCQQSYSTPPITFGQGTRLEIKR
notes: parental bivalent anti-CD40 mAb; common light chain; also called H4sH21519P2
B5: 21520P2 (antibody, human IgG4 S228P, kappa, V domains shown)
VH: EVQLVESGGGLVQPGGSLRLSCAASGFTFGSYGMAWVRQAPGKGLEWVSAISGSGDYTNYADSVKRRFTISRDNSKNTLYLQMSSLRAEDTAVYYCAKEKTGTTGYLYSGMDVWGQGTTVTVSS
VL: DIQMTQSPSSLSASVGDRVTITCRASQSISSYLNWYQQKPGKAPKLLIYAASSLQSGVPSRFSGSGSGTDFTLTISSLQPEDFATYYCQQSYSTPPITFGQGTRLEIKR
notes: parental bivalent anti-CD40 mAb; common light chain; also called H4sH21520P2

What was measured:
[1] = molecular target: T3, human CD40 extracellular domain expressed with a C-terminal myc-myc-hexahistidine tag (human); experiment: SPR Biacore 4000, mAb captured, 37C
T3 construct: also called hCD40-MMH; hCD40-mmH
Experimental: (§1) The equilibrium dissociation constants (KD) for anti-CD40 bivalent and bispecific monoclonal antibodies (mAbs) were determined using a real-time surface plasmon resonance (SPR)-based Biacore 4000 biosensor. All binding studies were performed in 10 mM HEPES, 150 mM NaCl, 3 mM EDTA, and 0.05% v/v surfactant Tween-20, pH 7.4 (HBS-ET) running buffer at 25° C. and 37° C. The Biacore CM5 sensor surface was first derivatized by amine coupling with a monoclonal mouse anti-human Fc antibody (REGN2567) to capture anti-CD40 bivalent parental and anti-CD40×CD40 bispecific antibodies. Different concentrations of CD40 reagents, human CD40 extracellular domain expressed with a C-terminal myc-myc-hexahistidine tag (SEQ ID NO: 1114) (“hCD40-MMH”; REGN3094; SEQ ID NO: 53), monkey CD40 extracellular domain expressed with a C-terminal myc-myc-hexahistidine tag (SEQ ID NO: 1114) (“mfCD40-MMH”; REGN3097; SEQ ID NO: 54), and mouse CD40 extracellular domain expressed with a C-terminal myc-myc-hexahistidine tag (SEQ ID NO: 1114) (“mCD40-MMH”; REGN3098; SEQ ID NO: 55), at concentrations ranging from 3.7 nM to 100 nM or 3.3 nM to 90 nM in a series of 3-fold dilutions prepared in HBS-ET running buffer were injected at a flow rate of 30 μL/min for 4 minutes or 50 μL/min for 5 minutes. The dissociation of different CD40 reagents bound to anti-CD40 bivalent parental and anti-CD40×CD40 bispecific antibodies was monitored for 10 minutes in HBS-ET running buffer. At the end of each cycle, the anti-CD40 bivalent parental and anti-CD40×CD40 bispecific antibodies capture surface was regenerated using a 12 sec injection of 20 mM H₃PO₄.
(§2) The association rate (ka) and dissociation rate (kd) were determined by fitting the real-time binding sensorgrams to a 1:1 binding model with mass transport limitation using Scrubber 2.0c curve-fitting software. Binding dissociation equilibrium constant (KD) and dissociative half-life (t_{1/2}) were calculated from the kinetic rates as: KD(M)=kd/kₐ, and t_{1/2} (min)=[ln(2)/(60*kd)].

[2] = molecular target: T1, monkey CD40 extracellular domain …; experiment: SPR Biacore 4000, mAb captured, 37C
Experimental: as §1, §2

[3] = molecular target: T2, mouse CD40 extracellular domain …; experiment: SPR Biacore 4000, mAb captured, 37C
Experimental: as §1, §2

[4] = molecular target: T4, human CD40 (hCD40) expressed on cells (human, UniProt P25942 21-277); experiment: cell-based or functional assay
T4 sequence (P25942 21-277): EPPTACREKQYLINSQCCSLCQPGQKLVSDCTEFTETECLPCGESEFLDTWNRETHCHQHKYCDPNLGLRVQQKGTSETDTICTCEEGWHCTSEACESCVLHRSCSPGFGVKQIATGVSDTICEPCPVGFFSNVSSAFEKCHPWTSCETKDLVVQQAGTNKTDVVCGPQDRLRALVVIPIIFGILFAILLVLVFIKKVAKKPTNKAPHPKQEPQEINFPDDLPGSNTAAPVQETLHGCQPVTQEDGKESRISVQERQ

[5] = molecular target: T4, human CD40 (hCD40) expressed on cells; experiment: cell-based or functional assay; remark: listed apart in the source
[6] = molecular target: T4, human CD40 (hCD40) expressed on cells; experiment: cell-based or functional assay; remark: listed apart in the source
[7] = molecular target: T3, human CD40 extracellular domain …; experiment: SPR Biacore 4000, mAb captured, 25C; 25° C.
Experimental: The equilibrium dissociation constants (KD) for anti-CD40 bivalent and bispecific monoclonal antibodies (mAbs) were determined using a real-time surface plasmon resonance (SPR)-based Biacore 4000 biosensor. All binding studies were performed in 10 mM HEPES, 150 mM NaCl, 3 mM EDTA, and 0.05% v/v surfactant Tween-20, pH 7.4 (HBS-ET) running buffer at 25° C. and 37° C. The Biacore CM5 sensor surface was first derivatized by amine coupling with a monoclonal mouse anti-human Fc antibody (REGN2567) to capture anti-CD40 bivalent parental and anti-CD40×CD40 bispecific antibodies. […] The dissociation of different CD40 reagents bound to anti-CD40 bivalent parental and anti-CD40×CD40 bispecific antibodies was monitored for 10 minutes in HBS-ET running buffer. […]
as §2

100 nM Ag Bound [1] [RU] | Kd [1] [nM] | koff [1] [s⁻¹] | kon [1] [M⁻¹ s⁻¹] | t1/2 [1] [min] | Kd [2] [nM] | koff [2] [s⁻¹] | kon [2] [M⁻¹ s⁻¹] | t1/2 [2] [min] | 100 nM Ag Bound [3] [RU] | % max blockade relative to no mAb, IL-6, donor 1 [4] [%] | % max blockade relative to no mAb, IL-6, donor 2 [4] [%] | % max blockade relative to no mAb, IL-6, donor 3 [4] [%] | % max blockade relative to no mAb, IL-10, donor 1 [5] [%] | % max blockade relative to no mAb, IL-10, donor 2 [5] [%] | % max blockade relative to no mAb, IL-10, donor 3 [5] [%] | % max blockade relative to no mAb, TNFa, donor 1 [6] [%] | % max blockade relative to no mAb, TNFa, donor 2 [6] [%] | % max blockade relative to no mAb, TNFa, donor 3 [6] [%] | kon [7] [M⁻¹ s⁻¹] | Binder
66.5 | 6 | 0.00372 | 620000 | 3.1 | 3.16 | 0.00333 | 1.05e+06 | 3.5 | 0.2 | – | – | – | – | – | – | – | – | – | – | B1
61.2 | 0.101 | 0.000149 | 1.47e+06 | 77.5 | – | – | – | – | – | 84 | 92.7 | 92.7 | 80.7 | 86.9 | 89.3 | 44.7 | 74.1 | 70.4 | – | B2
56.6 | 0.163 | 0.000125 | 769000 | 92.3 | – | – | – | – | – | 83.5 | 92 | 92 | 81.5 | 94.5 | 90.6 | 53.5 | 68.4 | 69.1 | – | B3
105 | 19.4 | 0.0123 | 635000 | 0.9 | – | – | – | – | 1.6 | – | – | – | – | – | – | – | – | – | 385000 | B4
67.2 | 69.9 | 0.0803 | 1.15e+06 | 0.1 | – | – | – | – | 0.2 | – | – | – | – | – | – | – | – | – | – | B5
